Among the data in publication PMC4970216 are Km values, retold here.

Substrate in this data set: C[C@]12CC[C@@H]3c4ccc(O)cc4CC[C@H]3[C@@H]1CC[C@@H]2O[C@@H]1O[C@H](C(=O)O)[C@@H](O)[C@H](O)[C@H]1O
Kind of data set: cells, lysate or membranes. It counts as cell-based, Homo sapiens.

B1: Organic anion transporting polypeptide (OATP) 1B1 (Homo sapiens) (protein)
chain: MDQNQHLNKTAEAQPSENKKTRYCNGLKMFLAALSLSFIAKTLGAIIMKSSIIHIERRFEISSSLVGFIDGSFEIGNLLVIVFVSYFGSKLHRPKLIGIGCFIMGIGGVLTALPHFFMGYYRYSKETNINSSENSTSTLSTCLINQILSLNRASPEIVGKGCLKESGSYMWIYVFMGNMLRGIGETPIVPLGLSYIDDFAKEGHSSLYLGILNAIAMIGPIIGFTLGSLFSKMYVDIGYVDLSTIRITPTDSRWVGAWWLNFLVSGLFSIISSIPFFFLPQTPNKPQKERKASLSLHVLETNDEKDQTANLTNQGKNITKNVTGFFQSFKSILTNPLYVMFVLLTLLQVSSYIGAFTYVFKYVEQQYGQPSSKANILLGVITIPIFASGMFLGGYIIKKFKLNTVGIAKFSCFTAVMSLSFYLLYFFILCENKSVAGLTMTYDGNNPVTSHRDVPLSYCNSDCNCDESQWEPVCGNNGITYISPCLAGCKSSSGNKKPIVFYNCSCLEVTGLQNRNYSAHLGECPRDDACTRKFYFFVAIQVLNLFFSALGGTSHVMLIVKIVQPELKSLALGFHSMVIRALGGILAPIYFGALIDTTCIKWSTNNCGTRGSCRTYNSTSFSRVYLGLSSMLRVSSLVLYIILIYAMKKKYQEKDINASENGSVMDEANLESLNKNKHFVPSAGADSETHC
One may read the Km as the substrate concentration at which the rate is half of its maximum. Take B1: the Michaelis-Menten constant (Km) came out at 7.20 ± 0.57 µM.
